In US20090075898A1, “Complement C3A Derived Peptides and Uses Thereof” (Yeda Research and Development Co. Ltd. at the Weizmann …, priority 2005, published 2009):

Experiments:
[1] = test system: bone marrow derived mast cells (BMMC); test: Secretory response (β-hexosaminidase release) of bone marrow derived mast cells; assay type: cell-based, mouse
Experimental: Cells. Bone marrow derived mast cells (BMMC) were prepared from Balb/c mice as described by Nagao et al. (Science 212: 333-335, 1981). After 3 weeks, an approximately 95% pure mast cell population was obtained, showing high expression of FcεRI and stem cell factor receptor (c-kit), as measured by flow cytometry.
(§1) Secretory response of mast cells.
Similar experiments were carried out using bone-marrow derived mast cells (BMMC). […] The control peptide of the sequence DVSNYITR had no effect on either system.

[2] = test system: rat peritoneal mast cells (RPMC); test: Secretory response (β-hexosaminidase release) of rat peritoneal mast cells; assay type: cell-based
From the text: Rat peritoneal mast cells (RPMC) were isolated as previously described (Kim et al. J. Immunol. 162:4960-4965, […]). Mast cell preparations were ca. 95% pure, as evaluated by flow cytometric monitoring of FcεRI surface expression. Compound 48/80, a specific activator of serosal type mast cells elicited about 50% release of the total β-hexosaminidase content of the isolated rat peritoneal mast cells.
as §1
While mucosal type mast cells are non-responsive to peptidergic stimuli, the serosal type ones have been known for a long time to be stimulated by cationic secretagogues. The anaphylatoxic peptides C3a and C5a initiate the cells' secretory response by binding to their respective receptors expressed by serosal type mast cells. To investigate the effect of the peptides on this mast cell-type, RPMC were used. As expected, these cells did respond to both C5a and C3a (Table 2). However, degranulation was inhibited when peptides C3a7 or C3a9 were added to the IgE-sensitized RPMC and stimulated, 5 min later with a suboptimal antigen dose (Table 2).

[3] = target: T1, FcεRI β-chain (Mus musculus, UniProt P20490); test: Covalent cross linking of C3a to BMMC, immunoprecipitation and Western blot; assay type: binding; details: C3a 50 μg/ml, BS3 cross linker
T1 construct: endogenous in cells; host or cells: BMMC (bone marrow derived mast cells)
T1 sequence (P20490 1-235): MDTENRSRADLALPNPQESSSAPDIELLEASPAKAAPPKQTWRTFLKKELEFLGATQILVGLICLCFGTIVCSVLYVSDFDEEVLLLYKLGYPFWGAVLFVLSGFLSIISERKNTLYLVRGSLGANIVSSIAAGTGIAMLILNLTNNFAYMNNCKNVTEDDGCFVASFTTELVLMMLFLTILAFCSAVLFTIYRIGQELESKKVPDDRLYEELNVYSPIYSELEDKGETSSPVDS
T1 sequence (P20489 24-250 partner): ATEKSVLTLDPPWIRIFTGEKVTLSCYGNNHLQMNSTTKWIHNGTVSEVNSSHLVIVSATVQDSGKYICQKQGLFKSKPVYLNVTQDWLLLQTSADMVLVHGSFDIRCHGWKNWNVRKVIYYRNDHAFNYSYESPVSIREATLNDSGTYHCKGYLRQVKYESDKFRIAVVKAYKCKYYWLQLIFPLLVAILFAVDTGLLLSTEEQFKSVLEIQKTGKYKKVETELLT
T1 sequence (P20491 19-86 partner): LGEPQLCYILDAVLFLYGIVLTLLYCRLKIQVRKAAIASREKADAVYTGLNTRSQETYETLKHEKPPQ
Experimental: Covalent cross linking of C3a to BMMC. BMMC were washed and incubated with C3a (50 μg/ml per 15−20×10^6 cells/sample, in PBS) for 10 min at room temperature. After another incubation of 20 min at room temperature with 5 mM of the cross linking reagent bis-(sulphosuccinimidyl)-suberate (BS3, PIERCE, Ill., USA) cells were washed and lysed. Polyclonal rabbit antibodies specific to C3a (Behringwerke AG, Germany) were used for immunoprecipitation. Western blotting was carried out by an FcεRI β chain specific antibody kindly provided by Jean Pierre Kinet (Harvard University, Boston, USA). As secondary antibody, HRPO-conjugated goat anti-mouse IgG (DAKO, Frank Diagnosztika Kft, Hungary) was used. Detection was performed by ECL.
Covalent cross-linking of C3a to BMMC. Since no C3a-receptors could be detected on mucosal type mast cells, the possibility that the peptides exert their inhibitory effect via interaction with a different cell membrane component, probably the type 1 Fcε-receptor, was examined. […] Since the ITAM-bearing β-chain had earlier been reported to act as an amplifier of the FcεRI response, the interaction of C3a with this membrane protein on BMMC was determined. Cells were incubated with C3a followed by adding the covalent cross linking agent, BS^3-reagent. […] Protein samples were separated by SDS-PAGE and analyzed by Western-blotting, using FcεRI β-chain specific antibodies.

[4] = test system: RBL-2H3 cells; details: Erdei et al. 1995, 1999; cited from earlier work
[5] = target: rat FcεRI β chain (Rattus norvegicus, UniProt P13386); test: Surface plasmon resonance, immobilized extracellular loop peptides of rat FcεRI β chain; details: SPR
[6] = target: human FcεRI β chain (Homo sapiens, UniProt Q01362); test: Surface plasmon resonance, immobilized extracellular loop peptides of human FcεRI β chain; details: SPR

C3a: human complement component C3a, a 77-mer peptide (SEQ ID NO:1), isolated
Inhibition of IgE-mediated secretory response of BMMC [1]: found to inhibit | Stimulation of secretory response of RPMC by the peptide itself ([2]; non-sensitized cells, no antigen): did respond | Inhibitory effect (IC50) on the IgE-mediated degranulation of rat peritoneal mast cells (RPMC) ([2]; suboptimal antigen-dose): Activation* | Cross-linked complex with FcεRI β-chain on BMMC [3]: covalent complex | Inhibition of IgE-mediated degranulation of RBL-2H3 cells (literature) [4]: inhibit | Interaction with the second extracellular loop of rat FcεRI β chain [5]: No interaction could be detected | Kd ([5]; read-out: Kd, first extracellular loop of rat FcεRI β chain, koff/kon): 520 nM | Interaction with the second extracellular loop of human FcεRI β chain [6]: No interaction could be detected | Kd ([6]; read-out: Kd, first extracellular loop of human FcεRI β chain, koff/kon): 250 nM
